Target: T1, SARS-COV-2病毒N蛋白 (SARS-COV-2, UniProt P0DTC9 1-419)
T1 construct: also called 新型冠状病毒N蛋白; SARS-COV-2N蛋白
Assay: ELISA, N protein coated 100 ng/well, supernatant of transfected Expi293F cells

B1: 31A8抗体重链31A8mG1 (heavy chain transfected alone) (other)
VH: EVQLQQSGPELVKPGASVKISCKTSGYTFTKYTMHWVKQSHGKSLEWIGGINPNNGGNSYNQKFKGKATLTVDKSSSTAYMELRSLTSEDSAVYYCATPDYWGQGTTLTVSS
B1: no binding.
